Measured values published in FireProtDB (doi:10.1111/j.1432-1033.1992.tb17411.x).

Conditions: Homo sapiens, Thermal, DSC, NaCl 0.13 M, whole UniProt chain shown
[1] = pH 5, Sodium acetate 0.02 M, reversible: yes
[2] = pH 6.5, Sodium phosphate 0.01 M, reversible: yes
[3] = pH 6.5, Sodium phosphate 0.01 M, reversible: no
[4] = pH 8.1, HEPES 0.01 M, reversible: no

| Protein | Tm [1] [°C] | unfolding enthalpy (calorimetric) [1] [kcal/mol] | unfolding enthalpy (van 't Hoff) [1] [kcal/mol] | Tm [2] [°C] | unfolding enthalpy (calorimetric) [2] [kcal/mol] | unfolding enthalpy (van 't Hoff) [2] [kcal/mol] | Tm [3] [°C] | unfolding enthalpy (calorimetric) [3] [kcal/mol] | unfolding free energy (pH 8.1, 10 °C, HEPES 0.01 M, reversible: yes) [kcal/mol] | unfolding free energy (pH 8.1, 25 °C, HEPES 0.01 M, reversible: yes) [kcal/mol] | unfolding free energy (pH 8.1, 45 °C, HEPES 0.01 M, reversible: yes) [kcal/mol] | unfolding free energy (pH 8.1, 50 °C, HEPES 0.01 M, reversible: yes) [kcal/mol] | Tm [4] [°C] | unfolding enthalpy (calorimetric) [4] [kcal/mol] |
| --- | --- | --- | --- | --- | --- | --- | --- | --- | --- | --- | --- | --- | --- | --- |
| Cystatin-A wild type, P01040 (protein) MIPGGLSEAKPATPEIQEIVDKVKPQLEEKTNETYGKLEAVQYKTQVVAGTNYYIKVRAGDNKYMHLKVFKSLPGQNEDLVLTGYQVDKNKDDELTGF | 90.8 | 113 | 129 | 94.5 | 116 | 148 |  |  |  |  |  |  |  |  |
| Cystatin-B wild type, P04080 (protein) MMCGAPSATQPATAETQHIADQVRSQLEEKENKKFPVFKAVSFKSQVVAGTNYFIKVHVGDEDFVHLRVFQSLPHENKPLTLSNYQTNKAKHDELTYF | 50.2 | 70 | 73 |  |  |  | 64.9 | 78 | 6 | 5.9 | 3.99 | 3.2 | 65.9 | 81 |
